{"source": "patent US10077295B2", "about": "“Glycoproteins having lipid mobilizing properties and therapeutic uses thereof” (Aston University, priority 2010, dated 2018)", "molecules": {"B1": {"name": "ZAG: recombinant full length human zinc-α2-glycoprotein (SEQ ID NO: 1) secreted by transfected HEK293F cells; lipid mobilizing factor (protein, listed as Homo sapiens)", "chain": "QENQDGRYSLTYIYTGLSKHVEDVPAFQALGSLNDLQFFRYNSKDRKSQPMGLWRQVEGMEDWKEDSQLQKAREDMETLKDIVEYYNDSNGSHVLQGRFGCEIENNRSSGAFWKYYYDGKDYIEFNKEIPAWVPFDPAAQITKQKWEAEPVYVQRAKAYLEEECPATLRKYLKYSKNILDRQDPPSVVVTSHQAPGEKKKLKCLAYDFYPGKIDVHWTRAGQVQEPELRGDVLHNGNGTYQSWVVVAVPPQDTAPYSCHVQHSSLAQPLVVPWEAS"}}, "key": {"ob/ob mice": {"system": "ob/ob mice", "assay": "ob/ob mice administered ZAG i.v. for 5 days (120 h): body weight, temperature, plasma metabolites, tissue weights", "assay_type": "in vivo, mouse", "experimental": "Animals—Mice. Homozygous obese (ob/ob) mice from the colony maintained at Aston University were used in the present study. The origin and characteristics of Aston ob/ob mice have been previously described. Male mice (20-21 weeks old, weight 90-100 g) were grouped into three per cage in an air conditioned room at 22±2° C. with a 12 h-light:12 h-dark cycle and fed a rat and mouse breeding diet (Special Diet Services, Witham, UK) and tap water ad libitum. They were administered ZAG (35 μg) in PBS (100 μl) b.d. by i.v. administration and body weight and food and water intake were monitored daily. Control mice received PBS alone. Body temperature was measured daily by the use of a rectal thermometer (RS Components, Northants, UK). All animal experiments were carried out in accordance with the U.K. Animals (Scientific Procedures) Act 1986.\nSerum Metabolite Determinations. Non-esterified fatty acids (NEFA) were determined using a Wako-ASC-ACOD kit (Wako Chemical GmbH, Neuss, Germany). Triglycerides were determined using a Triglyceride kit (Sigma Chemical Co., Poole, United Kingdom) and 3-hydroxybutyrate by a quantitative enzymatic determination kit (Sigma). Glucose was measured using a glucose analyser (Beckman, Irvine, Calif.) and glycerol was determined enzymatically using the method of Wieland as described in “Methods of Enzymatic Analysis” (Ed. Bergmeyer, H. U.) Vol. 3, pp1404-1409, published by Academic Press, London (1974)."}, "adipocytes, BAT": {"system": "adipocytes, BAT", "assay": "Expression of ZAG, HSL, UCP in adipose tissue/adipocytes of mice (5 day ZAG study)", "assay_type": "in vivo, mouse", "experimental": "Western Blot Analysis. Freshly excised gastrocnemius muscles were washed in PBS and lysed in PHOSPHOSAFE™ Extraction Reagent for 5 min at room temperature followed by sonication at 4° C. The lysate was cleared by centrifugation at 18,000 g for 5 min at 4° C. and samples of cytosolic protein (5 μg) were resolved on 12% sodium dodecyl sulfate-polyacrylamide gel electrophoresis at 180V for approximately 1 h. This was followed by transference to 0.45 μm nitrocellulose membranes, which were then blocked with 5% Marvel in Tris-buffered saline, pH 7.5, at 4° C. overnight. Both primary and secondary antibodies were used at a dilution of 1:1000 except anti-myosin (1:250). Incubation was for 1 h at room temperature, and development was by ECL. Blots were scanned by a densitometer to quantify differences.\nA 5 day study was performed where ZAG was administered at 35 μg per day i.v. on a daily basis for 5 days. At the end of the experiment tissues were removed and blotted, or functional assays were carried out with isolated adipocytes. […] When ep adipocytes were prepared and maintained in tissue culture (RPMI 1640+10% FCS) ZAG expression was maintained for a further 3 days, even though no ZAG was added to the culture medium (FIG. 6B). […] In fact, as discussed above, too much ZAG is more likely to lead to resistance rather than an increased response."}, "[1]": {"system": "murine epididymal adipocytes", "assay": "Lipolytic assay (glycerol release) in murine adipocytes", "assay_type": "cell-based, mouse", "experimental": "Cell Culture and Purification of ZAG. Single-cell suspensions of white adipocytes were prepared from minced adipose deposits by incubation at 37° C. for 2 h in Krebs-Ringer biocarbonate buffer containing 1.5 mgml^−1 collagenase, and 4% bovine serum albumin under an atmosphere of 95% oxygen: 5% CO2 as previously described. For time-course studies adipocytes were suspended in DMEM containing 10% fetal calf serum at a concentration of 10^5 cells ml^−1 and maintained under an atmosphere of 10% CO2 in air at 37° C. Human 293 cells transfected with a plasmid containing human ZAG were seeded at a concentration of 10^5 cells ml^−1 in FreeStyle medium and maintained under an atmosphere of 5% CO2 in air at 37° C. Maximal protein levels (16 μgml^−1) were obtained after 14 days of culture. The media (200 ml) was then centrifuged at 700 g for 15 min to remove cells and concentrated into a volume of 1 ml of sterile PBS using an Amicon Ultra-15 centrifugal filter with a 10 kDa cut-off After measurement of the protein concentration of the sample (about 2 mg) it was added to 2 g DEAE cellulose suspended in 20 ml of 10 mM Tris, pH8.8 and stirred at 4° C. for 2 h. ZAG being negatively charged binds to the DEAE cellulose, which was sedimented by centrifugation (1500 g for 15 min), and eluted by stirring with 20 ml 10 mM Tris, pH8.8 containing 0.3M NaCl for 30 min at 4° C. The supernatant was washed and concentrated to a volume of 1 ml in sterile PBS using the Amicon centrifugal filter.\nLipolytic assay. Samples to be assayed were incubated with 10^5 to 2×10^5 adipocytes for 2 h in 1 ml Krebs-Ringer bicarbonate buffer, pH 7.2. The concentration of glycerol released was determined enzymatically by the method of Wieland (Wieland, O. Glycerol UV method. In Methods of Enzymatic Analysis (ed. Bergmeyer, H.U.) (Academic Press, London, UK, pp 1404-1409, 1974)). Control samples containing adipocytes alone were analysed to determine the spontaneous glycerol release. Activity was expressed as μmol glycerol released/10^5 adipocytes/2 h."}, "[2]": {"system": "WAT, BAT and gastrocnemius muscle of male Wistar rats", "assay": "Western blots of tissues from rats treated with ZAG", "assay_type": "in vivo, rat", "experimental": "Samples of epididymal WAT, BAT and gastrocnemius muscle excised from rats treated with ZAG or PBS for 5 days were homogenized in 0.25M sucrose, 1 mM HEPES, pH 7.0 and […], and then centrifuged for 10 min at 4,500 rpm. Samples of cytosolic protein (10 μg) were resolved on 12% sodium dodecylsulphate polyacrylamide gel electrophoresis and the proteins were then transferred onto 0.45 μm nitrocellulose membranes, which had been blocked with 5% Marvel in Tris-buffered saline, pH 7.5, at 4° C. overnight, and following four 15 min washes with 0.1% Tween in PBS, incubation with the secondary antibody was performed for 1 h at room temperature. Development was by ECL."}}, "data": [{"molecule": "B1", "values": [{"measurement": "oxygen uptake by BAT", "setting": "ob/ob mice; ob/ob mice after ZAG administration", "value": "three-fold increase"}, {"measurement": "BAT weight", "setting": "ob/ob mice; ob/ob mice treated for 120 h", "value": "0.73 ± 0.12", "unit": "p < 0.01 g"}, {"measurement": "Gastrocnemius weight", "setting": "ob/ob mice; ob/ob mice treated for 120 h", "value": "1.12 ± 0.14", "unit": "p < 0.01 g"}, {"measurement": "Glucose (plasma)", "setting": "ob/ob mice; ob/ob mice treated for 120 h", "value": "20.3 ± 0.8", "unit": "p < 0.01 mmol/L"}, {"measurement": "Glycerol (plasma)", "setting": "ob/ob mice; ob/ob mice treated for 120 h", "value": "429 + 36 p < 0.001 μmol/L"}, {"measurement": "Insulin (plasma)", "setting": "ob/ob mice; ob/ob mice treated for 120 h", "value": "26.3 ± 0.52", "unit": "p < 0.001 ng/mL"}, {"measurement": "Insulin Pancreas", "setting": "ob/ob mice; ob/ob mice treated for 120 h", "value": "16.3 ± 3.1", "unit": "p = 0.0042 pg/g pancerase"}, {"measurement": "NEFA (plasma)", "setting": "ob/ob mice; ob/ob mice treated for 120 h", "value": "0.23 ± 0.05", "unit": "p < 0.001 mEq/L"}, {"measurement": "Soleus weight", "setting": "ob/ob mice; ob/ob mice treated for 120 h", "value": "0.80 ± 0.09", "unit": "p < 0.01 g"}, {"measurement": "TG (plasma)", "setting": "ob/ob mice; ob/ob mice treated for 120 h", "value": "0.9 ± 0.1", "unit": "p < 0.05 mmol/L"}, {"measurement": "adverse effects after administration", "setting": "ob/ob mice; ob/ob mice, 35 μg i.v.", "value": "No adverse effects were observed"}, {"measurement": "decrease in plasma insulin levels", "setting": "ob/ob mice; ob/ob mice, 5 days", "value": 36, "unit": "%"}, {"measurement": "blood glucose", "setting": "ob/ob mice; ob/ob mice, Day 5 (value before the further drop)", "value": 2.03, "unit": "mM"}, {"measurement": "rise of body temperature", "setting": "ob/ob mice; ob/ob mice, after 4 days of ZAG", "value": 0.4, "unit": "°C"}, {"measurement": "weight difference between ZAG and PBS groups", "setting": "ob/ob mice; ob/ob mice, after 5 days", "value": 3.5, "unit": "g"}, {"measurement": "ZAG expression in epididymal, subcutaneous and visceral fat", "setting": "adipocytes, BAT; 35 μg per day i.v., 5 days", "value": "about two-fold"}, {"measurement": "time increased response to isoprenaline was maintained in tissue culture without ZAG", "setting": "adipocytes, BAT; adipocytes from ZAG treated mice, isoprenaline 10 μM", "value": 4, "unit": "days"}, {"measurement": "expression of phospho HSL in adipocytes", "setting": "adipocytes, BAT; adipocytes of non-obese mice, 3 h", "value": "increased expression of phospho HSL"}, {"measurement": "expression of UCP1 and UCP3 in BAT", "setting": "adipocytes, BAT; ob/ob mice treated 5 days", "value": "increased the expression of UCP1"}, {"measurement": "lipolytic effect in adipocytes from subcutaneous and visceral deposits", "setting": "[1]; compared with epididymal adipocytes", "value": "considerably reduced"}, {"measurement": "lipolysis in epididymal adipocytes", "setting": "[1]; mouse adipocytes", "value": "stimulated lipolysis"}, {"measurement": "effect of a single freezing and thawing cycle on lipolytic activity", "setting": "[1]; murine epididymal adipocytes", "value": "destroyed"}, {"measurement": "potency at inducing lipolysis compared with isoprenaline", "setting": "[1]; on a molar basis", "value": "more potent at inducing lipolysis than isoprenaline on a molar basis"}, {"measurement": "expression of ATGL and HSL in epididymal adipose tissue", "setting": "[2]; rats", "value": "two-fold increase"}, {"measurement": "expression of UCP-1 and -3 in BAT and WAT", "setting": "[2]; rats", "value": "almost two-fold"}, {"measurement": "phosphorylated forms of PKR and eIF2 α-subunit in gastrocnemius muscle", "setting": "[2]; rats", "value": "significant reduction"}, {"measurement": "expression of ZAG in skeletal muscle, WAT and BAT", "setting": "[2]; rats treated for 10 days", "value": "significantly increased"}]}]}
